Laboratory results: patent US20140275487A1

Target: T4L-β2AR (N-terminally fused T4 lysozyme-β2AR construct truncated in position 365), BI-167107 bound (human)
Test: crystal structure

Substance “Gαs subunit of the heterotrimeric Gs protein (from UniProt P04896 2-394)” has a buried surface for GαsRas of 1300 A^2, a buried surface for the β2AR of 1280 A^2 and a total buried surface of the β2AR-GαsRas interface of 2580 A^2.
